Reference: paper PMC5087089

Experiments:
[1] = biological target: Y98F HA trimer from A/New Caledonia/20/1999 (H1 1999 NC), soluble trimeric format (influenza A virus A/New Caledonia/20/1999 (H1 1999 NC)); test: SEC; size exclusion on a Sepharose 10/300 column
[2] = biological target: wildtype (WT) HA trimer from A/New Caledonia/20/1999 (H1 1999 NC), soluble trimeric format (influenza A virus A/New Caledonia/20/1999 (H1 1999 NC)) (UniProt Q6WG00); test: SEC; size exclusion on a Sepharose 10/300 column

Substance | stoichiometry N [1] | stoichiometry N [2]
Y98F HA trimer from A/New Caledonia/20/1999 (H1 1999 NC), soluble trimeric format (natural protein) | 3 | –
wildtype (WT) HA trimer from A/New Caledonia/20/1999 (H1 1999 NC), soluble trimeric format (from UniProt Q6WG00 1-565) (natural protein) | – | 3
